From publication PMC6533540, “DprA Is Essential for Natural Competence in Riemerella anatipestifer and Has a Conserved Evolutionary Mechanism”

T1: DprA (DprARa) (Riemerella anatipestifer ATCC11845, UniProt E4TBU2 1-367)
T1 sequence: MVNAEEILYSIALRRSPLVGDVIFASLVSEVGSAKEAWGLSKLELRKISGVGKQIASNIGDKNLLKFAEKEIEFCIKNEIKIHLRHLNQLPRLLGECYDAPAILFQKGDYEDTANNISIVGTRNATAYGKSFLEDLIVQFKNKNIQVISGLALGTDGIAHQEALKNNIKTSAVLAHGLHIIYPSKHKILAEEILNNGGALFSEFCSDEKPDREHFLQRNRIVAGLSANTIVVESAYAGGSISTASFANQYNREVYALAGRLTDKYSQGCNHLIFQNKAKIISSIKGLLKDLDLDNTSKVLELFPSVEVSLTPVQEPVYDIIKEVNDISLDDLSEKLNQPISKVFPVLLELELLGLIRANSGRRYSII


Target: T1, DprA (DprARa)
Experiment: EMSA; 1-20 uM DprA; 25 mM HEPES pH 7.0, 150 mM NaCl, 10% glycerol, 1 mM DTT, 0.05% IGEPAL, 30 min at 30 C; 8% native PAGE in 0.5x TBE on ice
Details: protein: recombinant, tags: C-terminal His6, chain copies: 2, label: biotin

Row | Binder | binding result | binding result (blunt)
1 | TAGGCTCTGCTAAGGAAGCGTGGGGTCTGTCTAAGTTGGA (ssDNA) [RA-ssDNA1] | binds | 
2 | dsDNA annealed from RA-ssDNA1 (dsDNA) DNA 1: TAGGCTCTGCTAAGGAAGCGTGGGGTCTGTCTAAGTTGGA DNA 2: TCCAACTTAGACAGACCCCACGCTTCCTTAGCAGAGCCTA |  | binds
3 | AAAAACTACGGAACTGACTAAAGGCAGAAAAACTAAACGG (ssDNA) [RA-ssDNA2] | binds | 
